Assay results from the nanobody polyreactivity screen of Harvey et al. (2022).

test: yeast display, Sf9 membrane polyspecificity reagent, FACS + sequencing; frameworks hold sequencing errors
In short: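 In a synthetic yeast display library (Saccharomyces cerevisiae BJ5465), nanobody expression was induced with galactose for 36–48 hours. FACS gates were set low and high (top ~1%) using anti-HA fluorescence for expression and streptavidin fluorescence for binding of the Sf9 membrane reagent. Each polyreactivity label is drawn from the gate of origin.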

Row | Sequence | polyreactivity (PSR sort gate)
1 | QVQLVESGGGLVQAGGSLRLSCAASGRIFYPYSMGWYRQAPGKERELVASINYRGGSTYYADSVNGRFTISRDNAKNTVYLQMNSLKPEDTAVYYCNAVRGFYRYSSSMGYWGQGTQVTVSS | high polyreactivity
2 | QVQLVESGGGLVQAGGSLRLSCAASGRIFYPYVMGWYRQAPGKERELVAAISASGGRTYYADSVKGRFTISRDNAKNTVYLQMNSLKPEDTAVYYCAAQGWRYYRTVVPMDYWGQGTQVTVSS | low polyreactivity
3 | QVQLVESGGGLVQAGGSLRLSCAASGRIFYPYVMGWYRQAPGKERELVAAISDSTGSTYYADSVKGRFTISRDNAKNTVYLQMNSLKPEDTAVYYCAAGWFYATYWRFYYWGQGTQVTVSS | low polyreactivity
4 | QVQLVESGGGLVQAGGSLRLSCAASGRIFYQNAMGWYRQAPGKERELVADISSGGSTYYADSVKGRFTISRDNAKNTVYLQMNSLKPEDTAVYYCAAEGQLFDLYDYWGQGTQVTVSS | low polyreactivity
5 | QVQLVESGGGLVQAGGSLRLSCAASGRIFYRNAMGWYRPAPGKERELVAAISGSGGSTSYADSVKGRFTISRDNAKNTVYLQMNSLKPEDTAVYYCAAYKLYWGQGTQVTVSS | high polyreactivity
6 | QVQLVESGGGLVQAGGSLRLSCAASGRIFYRNAMGWYRQAPGKERELVAAISSSTGSTYYADSVKGRFTISRDNAKNTVYLQMNSLKPEDTAVYYCNTARNRARYYYWGQGTQVTVSS | high polyreactivity
7 | QVQLVESGGGLVQAGGSLRLSCAASGRIFYRNAMGWYRQAPGKERELVAAITIGTNTYYADSVKGRFTISRDNAKITVYLQMNSLKPEDTAVYYCAVAVFLYTGGVDYWGQGTQVTVSS | low polyreactivity
8 | QVQLVESGGGLVQAGGSLRLSCAASGRIFYRYAMGWYIQAPAKERELFAAITGSGGSTYYADSVKGRFTISRDNAKNTVYFQMNSLKPEDTAVYYCNAVERSAFRGVRFDYDYWGQGTQVTLSS | high polyreactivity
9 | QVQLVESGGGLVQAGGSLRLSCAASGRIFYRYAMGWYRQAPGKERELVAGITRGGSTYYADSVKGRFTISRDNAKNTVYLQMNSLKPEDTAVYYCNVRWSPAGTGLLDFWGQGSQVTVSS | high polyreactivity
10 | QVQLVESGGGLVQAGGSLRLSCAASGRIFYRYAMGWYRQAPGKERELVASISGSGGRTYYADSVKGRFTISRDNAKNTVYLQMNSLKPEDTAVYYCAARIRPSYDWGQGTQVTVSS | high polyreactivity
11 | QVQLVESGGGLVQAGGSLRLSCAASGRIFYRYAMGWYRQAPWKEWELVADISSGTSTNYADSVKGRFTLSRDNAKNTVDLQMNSLKPEDTAVYYCAADEVRSAWRCSSPPDYDHWGQGTQVTVSS | low polyreactivity
12 | QVQLVESGGGLVQAGGSLRLSCAASGRIFYSNAMGWYRQAPGKERELVAAISWSTGSTYYADSVKGRFTISRDHAKNTVYLQMNSLKPEDTAVYYCYKDDAQTRSFASTWYDYWGQGTQVTVSS | high polyreactivity
13 | QVQLVESGGGLVQAGGSLRLSCAASGRIFYSNAMGWYRQAPGKERELVAAITRSGGGTYYADSVKGRFTISRDNAKNTVYLQMNSLKPEDTAVYYCARPAFFRSLSTSDDYWGQGTQVTVSS | high polyreactivity
14 | QVQLVESGGGLVQAGGSLRLSCAASGRIFYSNAMGWYRQAPGKERELVATISTGGSTYADSVKGRFTISRDNAKNTVYLQMNSLKPEETAVYYCAVDEWRWRVGAVAYYYWGQGTQVTVSS | low polyreactivity
15 | QVQLVESGGGLVQAGGSLRLSCAASGRIFYSNTMGWYRQAPGKERELVARIDTGGGSTYADSVKGRFTISRDNAKNTVYLQMNSLKPEDTAVYYCAALKFEAWAGEDYWGQGTQVTVSS | low polyreactivity
16 | QVQLVESGGGLVQAGGSLRLSCAASGRIFYSNTMGWYRQAPGKERELVARIDTGGGSTYADSVKGRFTISRDNAKNTVYLQMNSLKPEDTAVYYCAKTIAVNTWYYYWGQGTQVTVSS | low polyreactivity
17 | QVQLVESGGGLVQAGGSLRLSCAASGRIFYSNTMGWYRQAPGKERELVARIDTGGGSTYADSVKGRFTISRDNAKNTVYLQMNSLKPEDTAVYYCNKKGRWRSWGSTSLVSMDYWGQGTQVTVSS | low polyreactivity
18 | QVQLVESGGGLVQAGGSLRLSCAASGRIFYSNVMGWYRQAPGKERELVAAISGRTGGTYYADSVKGRFTISRDNAKNTVYLQMNSLIPEDTAVYYCAARVIYYYGSGPYDYWGQGTQVTVSS | low polyreactivity
19 | QVQLVESGGGLVQAGGSLRLSCAASGRIFYSYAMAWYRQAPGKERELVAAISSRTGSTYYADSVKGRFTISRDNAKITVYLQMNSLIPEDTAVYYCAARKKYRFDYWGQGTQVTVSS | high polyreactivity
20 | QVQLVESGGGLVQAGGSLRLSCAASGRIFYSYAMGWYRQAPGKERELVAAINSGDRTNYADSVKGRFTISRDNAKNTVYLQMNSLKPEDTAVYYCATDDYPWRRHPWYAGYDSWGQGTQVTVSS | low polyreactivity
21 | QVQLVESGGGLVQAGGSLRLSCAASGRIFYSYAMGWYRQAPGKERELVAAIRSTGSTNYADSVKGRFTISRDNAKNTVYLQMNSLKPEDTAVYYCAARTSYRSSLYGYWGQGTQVTVSS | high polyreactivity
22 | QVQLVESGGGLVQAGGSLRLSCAASGRIFYSYAMGWYRQAPGKERELVAGINWRGSNTYYADSVKGRFTISRDNAKNTVYLQINSLKPEDTAVYYCKAGRRQDYRYNYWGQGTQVTVSS | high polyreactivity

Row | Sequence | polyreactivity (PSR sort gate)
23 | QVQLVESGGGLVQAGGSLRLSCAASGRIFYSYAMGWYRQAPGKERELVARITRGSSTYYADSVKGRFTISRDNAKNTVYLQMNSLKPEDTAVYYCAAAVYFQVAFAYYYWGQGTQVTVSS | low polyreactivity
24 | QVQLVESGGGLVQAGGSLRLSCAASGRIFYSYAMGWYRQAPGKERELVATISRRGGSTYYADSVKGRFTISRDNAKNTVYLQMNSLKPEDTAVYYCNKGIPTRSVRSYDYWGQGTQVTVSS | high polyreactivity
25 | QVQLVESGGGLVQAGGSLRLSCAASGRIFYTNAMGWYRQAPGKERELVAGITGSGDSTYYADSVKGRFTISRDNAKNTVYLQMNSLKPEDTAVYYCAARWRYVLMDYWGQGTQVTVSS | low polyreactivity
26 | QVQLVESGGGLVQAGGSLRLSCAASGRIFYTNGMAWYRQAPGKERELVATIRSGDGRTYYADSVKGRFTISRDNAKNTVYLQMNSLKPEDTAVYYCNASRVVYRQAYLYGFDYWGQGTQVTVSS | low polyreactivity
27 | QVQLVESGGGLVQAGGSLRLSCAASGRIFYTYAMGWYRQAPGKERELVAAISRSGVSTYYADSVKGRFTISRDTAKNTVYLQMNSLKPEDTAVYYCAARWRSGFTSGDYWGQGTQVTVSS | low polyreactivity
28 | QVQLVESGGGLVQAGGSLRLSCAASGRIFYTYAMGWYRQAPGKERELVAAITTSGGRTYYADSVKGRFTISRDNAKNTVYLQMNSLKPEDTAVYYCNKLSSDSYNYWGQGTQVTVSS | high polyreactivity
29 | QVQLVESGGGLVQAGGSLRLSCAASGRIFYTYAMGWYRQAPGKERELVATISRSSSTYYADSVKGRFTISRDNAKNTVYLQMNSLKPEDTAVYYCATRSASQLLDYWGQGTQVTVSS | low polyreactivity
30 | QVQLVESGGGLVQAGGSLRLSCAASGRIFYVNAMGWYRQAPGKERELVAAIRSAGGTYYADSVKGRFTISRDNAKNTVYLEMNWLNPEDSAVYYCNADASYREYRLYLIEMDYLGQGTQVTVSS | high polyreactivity
31 | QVQLVESGGGLVQAGGSLRLSCAASGRIFYVNAMGWYRQAPGKERELVATIRRGGDTNYADSVKGRFTISRDNAKNTVYLQMNSLKPEDTAVYYCASKAYQSSYQRYYWGQGTQVTVSS | high polyreactivity
32 | QVQLVESGGGLVQAGGSLRLSCAASGRIFYVNGMGWYRQAPGNERELVAAIRISGGRTYYADSVKGRFTISRDYAKYTVYFQMNSLKPEDTAVYFCAKRYYYPYAGYDYWGQGTQVTVSS | high polyreactivity
33 | QVQLVESGGGLVQAGGSLRLSCAASGRIFYVYALGWYRQAPGKERELVAAIDWNGGTTYYADSVKGRFTISRDNAKNTVYLQMNSLKPEDTAVYYCAVSLQGYNQVDYYYWGQGTQVTVSS | high polyreactivity
34 | QVQLVESGGGLVQAGGSLRLSCAASGRIFYVYAMGWYRQAPGKERELVAGIRSGGSTNYADSVKGRFTISRDNAKNTVYLLMNSLKPEDTAVYYCAVQSYGALSPQLVYRRYDYWGQGTQVTVSS | high polyreactivity
35 | QVQLVESGGGLVQAGGSLRLSCAASGRIFYVYAMGWYRQAPGKERELVATITYRGDTDYADSVKGRFTSSRDNAKNTVYLQMNSRKPEDTAVYYCAKDFEAGDDYFAYDYWGQGTQVTVSS | low polyreactivity
36 | QVQLVESGGGLVQAGGSLRLSCAASGRIFYVYTMGWYRQAPGKERELVAAISWSGGSTHYADSVKGRFTIARDNAKNTVYLQMNSLKPEDTAVYYCNKGVVSRVAFEYWGQGTQVTVSS | low polyreactivity
37 | QVQLVESGGGLVQAGGSLRLSCAASGRIFYWNAMGWYRQAPGKEREFVAAISWSGGSTYADSVKGRFTISRDNAKNTVYLQMNSLKPEDTAVYYCATRVSRSFRAYDYWGQGTQVTVSS | high polyreactivity
38 | QVQLVESGGGLVQAGGSLRLSCAASGRIFYYNAKGWYRQAPGKERELVATISRGGSTYYADSVKGRFTISRDNAKNTVDLQMNSLKPEDTAVYYCATRVLYYQSSYDYWGQGTQVTVSS | high polyreactivity
39 | QVQLVESGGGLVQAGGSLRLSCAASGRIFYYNAMGWYRQAPGKERELVASITWSGARTYYADSVKGRFTISRDNAKNTVYLQMNSLKPEDTAVYYCNAATSYYTYTYGYWGQGTQVTVSS | high polyreactivity
40 | QVQLVESGGGLVQAGGSLRLSCAASGRIFYYNDMGWYRQAPGKERELVAAITWTDDGTYYADSVKGRFTISRDYAKNTVYLQMNSLKPEDTAVYYFAAETFYGFEYWGQGTQVTLSS | low polyreactivity
41 | QVQLVESGGGLVQAGGSLRLSCAASGRIFYYNGMGWYRQAPGKERELVAAISRGGSTYYADSVKGRFTISRDNAKNTVYLQMNSLKPEDTAVYYCAARWKPPYWGRYYYWGQGTQVTVSS | high polyreactivity
42 | QVQLVESGGGLVQAGGSLRLSCAASGRIFYYNGMGWYRQAPGKERELVAAITANGGSTYYADSVKGRFTISRDNAKHTVYLQMNSLKPEDTAVYYCAAVYQLYYSAGRGYDYWGQGTQVTVSS | high polyreactivity
43 | QVQLVESGGGLVQAGGSLRLSCAASGRIFYYNTMGWYRQAPGKERELVARITYSGGRTYYADSVKGRFTISRDNAKNTVYLQMNSLKPEDTAVYYCNAKPRYYQTGGGYWGQGTQVTVSS | high polyreactivity
